Results reported in patent publication US20220041752A1 (Bayer, published 2022).

What was measured:
[1] = molecular target: human tissue factor pathway inhibitor (TFPI) (human) (UniProt P10646); test: SPR (Biacore) blocking assay: human TFPI immobilised on a CM5 chip, control Fab at 1 ug/ml injected before 5 ug/mL FVIIa/TF complex; this bar is the reference set to 100% by definition, so FVIIa/TF binding is not reduced
[2] = molecular target: human tissue factor pathway inhibitor (TFPI) (human) (UniProt P10646); test: SPR (Biacore) blocking assay: human TFPI immobilised on a CM5 chip, control Fab at 1 ug/ml injected before 5 ug/mL FXa; this bar is the reference set to 100% by definition, so FXa binding is not reduced
[3] = molecular target: T1, human tissue factor pathway inhibitor (TFPI) (human, UniProt P10646 29-304); test: assay and TFPI form not stated; reference is the wild type with hc_Lys99
T1 construct: also called human TFPI
T1 sequence: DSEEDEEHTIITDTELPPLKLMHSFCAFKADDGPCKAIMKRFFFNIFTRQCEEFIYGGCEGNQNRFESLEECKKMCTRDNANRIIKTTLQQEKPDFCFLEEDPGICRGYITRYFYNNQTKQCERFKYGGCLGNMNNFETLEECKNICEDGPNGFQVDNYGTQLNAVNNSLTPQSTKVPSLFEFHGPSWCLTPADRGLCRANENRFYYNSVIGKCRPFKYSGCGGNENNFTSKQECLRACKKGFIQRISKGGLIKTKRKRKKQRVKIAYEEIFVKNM

[4] = molecular target: T1, human tissue factor pathway inhibitor …; test: assay and TFPI form not stated; reference is the wild type with hc_Asp62

An FVIIa/TF binding (% of the signal after control Fab) [1] of 100% and an FXa binding (% of the signal after control Fab) [2] of 100% were found for Ctrl Fab in this work.

B1: Fab B (Fab, V domains shown)
VH: QVELVESGGGLVQPGGSLRLSCAASGFTFRSYGMSWVRQAPGKGLEWVSSIRGSSSSTYYADSVKGRFTISRDNSKNTLYLQMNSLRAEDTAVYYCARLYRYWFDYWGQGTLVTVSS
VL: DIELTQPPSVSVAPGQTARISCSGDNLRNYYAHWYQQKPGQAPVVVIYYDNNRPSGIPERFSGSNSGNTATLTISGTQAEDEADYYCQSWDDGVPVFGGGTKLTVLG
notes: also called monoclonal TFPI antibody Fab B
In the case of B1, the “fold affinity increase against wild type (hc_Lys99)” value [3] is reported as 20 fold.

B2: Fab A (Fab, V domains shown)
VH: QVQLQQSGPGLVKPSQTLSLTCAISGDSVSSNSAAWSWIRQSPGRGLEWLGIIYKRSKWYNRYAVSVKSRITINPDTSKNQFSLQLNSVTPEDTAVYYCARWHSDKHWGFDYWGQGTLVTVSS
VL: DIVMTQSPLSLPVTPGEPASISCRSSQSLVFSDGNTYLNWYLQKPGQSPQLLIYKGSNRASGVPDRFSGSGSGTDFTLKISRVEAEDVGVYYCQQYDSYPLTFGQGTKVEIKR
notes: Expressed in E. coli; also called monoclonal antibody Fab A
With B2 the “fold affinity increase against wild type (hc_Asp62)” value [4] was 120 fold.
